We go through 52 sequences from the supplement of paper PMC10567573.

A short description of the data set: protein stability index of a GFP-peptide fusion (GPS, HEK-293T) (PSI 1-6); higher = more stable.
[1] abbreviates: treatment: DMSO, c terminus: a fixed tail appended.
The mark [2] stands for this setting: treatment: MLN4924 1 uM, 8 h, c terminus: a fixed tail appended.

± gives the standard deviation.
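Further: 24-mer peptide tiles fused after GFP, lentivirally expressed, FACS-sorted into six equal bins by GFP/DsRed ratio, decoded by Illumina sequencing, PSI is the read-weighted mean bin number.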

As to TEDVNTLDSEKRTPLHVAAFLGDA [ANKRD44], the protein stability index came out at 4.72 ± 0.3 under setting [1] and 4.74 ± 0.11 under setting [2].

As to ASMSKRRCGVGVSVLDDLLYAVGG [KLHL20], the protein stability index runs as follows: under setting [1], 2.62 ± 0.14; under setting [2], 2.13 ± 0.44.

On to VVKFVNFLLVNGFQTAIDIFEDRI [TRAF3IP2], for which the protein stability index under setting [1] was found to be 2.33 ± 0.45 and the protein stability index under setting [2] turned out to be 2.83 ± 0.59.

Turning to ESDVKHRTRDYKKTSLAPYVKVFE [PRIM1], the protein stability index is, setting by setting: under setting [1], 3.39 ± 0.33; under setting [2], 3.62 ± 0.38.

As to CTRFTDEYQLFEELGKGAFSVVRR [CAMK2D], the protein stability index reads like this: under setting [1], 2.81 ± 0.31; under setting [2], 2.84 ± 0.39.

DQFTQVFLESQGIELNPPEKMALD [EFHC1]: the protein stability index under setting [1] was determined as 4.662 ± 0.027 and the protein stability index under setting [2] came to 4.78 ± 0.24.

Consider MTQVITRTQEEKLEHVRALIKKYS [TRIM55], for which the protein stability index reads like this: under setting [1], 2.68 ± 0.11; under setting [2], 2.94 ± 0.3.

As for TENRGNEKEFMKGNQLISNNIKFK [CLCN6], the protein stability index runs as follows: under setting [1], 4.43 ± 0.28; under setting [2], 4.52 ± 0.11.

SKQLTLEQLRREKIDLENTLEQEQ [CCDC6]: the protein stability index is, setting by setting: under setting [1], 5.43 ± 0.26; under setting [2], 5.2 ± 0.11.

For DNDPSCVHPIIKRRQCRPEIRMWQ [PHTF1], the protein stability index reads like this: under setting [1], 2.54 ± 0.25; under setting [2], 2.5 ± 0.41.

Regarding QELVLKVRIQNPSLRENDFIEIEL [ANKRD40], the protein stability index under setting [1] was 2.68 ± 1.1 and the protein stability index under setting [2] came to 2.38 ± 1.

For the sequence PTSGIVGALMEVMQKRSKAIHSSD [WASL], the protein stability index amounted to 3.14 ± 0.14 under setting [1] and 3.39 ± 0.19 under setting [2].

Regarding VLDLSKSLSAALLTAALLTFDTGC [POMT2], the protein stability index stood at 3.38 ± 0.38 under setting [1] and 2.98 ± 0.2 under setting [2].

As to APSIEQRLQEVRESIRRAQVSQVK [FCHSD1], the protein stability index was found to be 4.27 ± 0.39 under setting [1] and 4.35 ± 0.34 under setting [2].

On to QRTHTGEKPYKCPECGEIFAHSSN [ZNF263], for which the protein stability index under setting [1] stood at 3.6 ± 0.37 and the protein stability index under setting [2] stood at 4.07 ± 0.47.

As to NTRFVVDPSIFTAQPNTMLGRMFG [BTBD10], the protein stability index turned out to be 2.51 ± 0.52 under setting [1] and 2.44 ± 0.16 under setting [2].

In the case of EPPVTMIFMGYQNVEDEAETKKVL [PALM], the protein stability index reads like this: under setting [1], 4.07 ± 0.37; under setting [2], 4.09 ± 0.051.

As for YRRHVLGIVLQGPALCFAAAIFSL [TMEM175], the protein stability index runs as follows: under setting [1], 2.93 ± 0.18; under setting [2], 2.85 ± 0.39.

Consider AGALAQGGGPSATEWACILRRKTP [C6orf223], for which the protein stability index amounted to 3.56 ± 0.17 under setting [1] and 3.75 ± 0.29 under setting [2].

As to STDSGFCLDSPGPLDSKENLENPM [CDC25A], the protein stability index by setting is: under setting [1], 5.32 ± 0.12; under setting [2], 5.27 ± 0.14.

Take GPAPPPLPPALVPAGGLAPGGGRG [WAS]: the protein stability index is 5.09 ± 0.13 under setting [1] and 5.09 ± 0.18 under setting [2].

In the case of EEELQEIASEPTNKHLFYAEDFST [MATN2], the protein stability index runs as follows: under setting [1], 5.26 ± 0.41; under setting [2], 5.21 ± 0.32.

Regarding SKAWHQKSHFQNSREWSGKEKWWD [PBXIP1], the protein stability index under setting [1] is 2.94 ± 0.04 and the protein stability index under setting [2] was found to be 3.2 ± 0.34.

Take VILGVTNPFFAKTLQHWPHIIRIG [DENND6A]: the protein stability index worked out at 2.94 ± 0.67 under setting [1] and 2.78 ± 0.46 under setting [2].

Regarding ARFQDKQYSSHHTAEKRKRLGELF [CHGB], the protein stability index by setting is: under setting [1], 3.58 ± 0.44; under setting [2], 3.56 ± 0.11.

MATPPFRLIRKMFSFKVSRWMGLA [CCDC70]: the protein stability index is, setting by setting: under setting [1], 2.51 ± 0.48; under setting [2], 2.22 ± 0.099.

On to IAIPEWFLSENATVAAETRAVIAW [CPXM2], for which the protein stability index reads like this: under setting [1], 2.24 ± 0.25; under setting [2], 2.08 ± 0.14.

Turning to LVQDQDLEAIRKQDLVELYLTNCE [ZER1], the protein stability index reads like this: under setting [1], 3.61 ± 0.4; under setting [2], 3.85 ± 0.38.

For PFYPEVELNFISVFWPQLPNGLEA [MMP1], the protein stability index worked out at 2.61 ± 0.28 under setting [1] and 2.62 ± 0.52 under setting [2].

For RSPTLEPPRGRSEAPDSLNGPLGP [SMG5], the protein stability index is 4.89 ± 0.26 under setting [1] and 4.77 ± 0.055 under setting [2].

For ESSTREVVFPYTSKSCMRAVLEYL [RHOBTB2], the protein stability index runs as follows: under setting [1], 2.74 ± 0.13; under setting [2], 2.32 ± 0.25.

For the sequence TRAPQRAHEVLQELRDISSMAMEY [FBXO28], the protein stability index was found to be 3.44 ± 0.11 under setting [1] and 3.48 ± 0.3 under setting [2].

For the sequence QAQPLRTTSTLASSLPGHAAKTLP [EHMT1], the protein stability index by setting is: under setting [1], 4.33 ± 0.16; under setting [2], 4.4 ± 0.29.

In the case of SGYDGTFLFQKPGDKYEHHSYMGM [POMT2], the protein stability index is, setting by setting: under setting [1], 2.68 ± 0.23; under setting [2], 2.5 ± 0.5.

As for ISWAFTDRPDLSLTVLPKLQARER [C2CD2L], the protein stability index reads like this: under setting [1], 2.68 ± 0.28; under setting [2], 2.71 ± 0.43.

Consider NVGLESKYLKKREDSIPLRGLSQN [SASS6], for which the protein stability index runs as follows: under setting [1], 4.34 ± 0.19; under setting [2], 4.06 ± 0.26.

For CNSHMPYGYAAQARARERERLAHS [KCNA4], the protein stability index reads like this: under setting [1], 3.1 ± 0.23; under setting [2], 3.13 ± 0.31.

As for RIHTEEKPYKCQQCDKRFRWSSDL [ZNF75A], the protein stability index by setting is: under setting [1], 3 ± 0.2; under setting [2], 2.94 ± 0.091.

Take YSIPEELEKGSFVGNISKDLGLAP [PCDHGA10]: the protein stability index runs as follows: under setting [1], 3.59 ± 0.4; under setting [2], 3.7 ± 0.29.

RAASAMQFFTKGYQETISDVLNDA [GCH1] had a protein stability index under setting [1] of 3.38 ± 0.12 and a protein stability index under setting [2] of 3.53 ± 0.072.

On to VQAWPFTCLPLGVLMKGQHLHLET [PRAME], for which the protein stability index by setting is: under setting [1], 2.58 ± 0.3; under setting [2], 2.82 ± 0.39.

Consider VLVNLVPAHKNLNKQAYDLAKALL [PDS5B], for which the protein stability index runs as follows: under setting [1], 3.47 ± 0.59; under setting [2], 3.07 ± 0.89.

Take TSVQEADETTRSDISERPSVDDIE [C2CD2L]: the protein stability index runs as follows: under setting [1], 5.57 ± 0.27; under setting [2], 5.61 ± 0.19.

With IIIYLGPMVLMIIVMCVQIKCFHE [CDS2], the protein stability index turned out to be 3.13 ± 0.53 under setting [1] and 3.19 ± 0.24 under setting [2].

For the sequence FIIEYYNIRPADSRWVRDPRYRED [FBXO34], the protein stability index runs as follows: under setting [1], 2.44 ± 0.53; under setting [2], 2.26 ± 0.29.

Sequence MMVNLRACSAPGGLVPSEKPPMMP [C2CD2L] came in with a protein stability index under setting [1] of 2.14 ± 0.26 and a protein stability index under setting [2] of 2.29 ± 0.06.

Consider FGDSPKAEKRQIGDQEGPRPARST [FBF1], for which the protein stability index under setting [1] stood at 5.11 ± 0.47 and the protein stability index under setting [2] came to 5.08 ± 0.36.

On to ILEFAEKEGMVSSGQNLLAVESQ [PTPN9], for which the protein stability index is, setting by setting: (treatment: DMSO, c terminus: native) 2.96 ± 0.65; (treatment: MLN4924 1 uM, 8 h, c terminus: native) 3.03 ± 0.37.

In turn, KTLLAIGGWNFSTQKFTDMVATAN [CHIT1] showed a protein stability index under setting [1] of 2.39 ± 0.34 and a protein stability index under setting [2] of 2.14 ± 0.21.

For NYASIIRRDCMWSGFSARERLERA [MYCL], the protein stability index under setting [1] amounted to 2.78 ± 0.3 and the protein stability index under setting [2] worked out at 2.77 ± 0.3.

As for SVGHNWRKRMGTRRGRHEQSPTSR [C22orf15], the protein stability index by setting is: under setting [1], 4.32 ± 0.065; under setting [2], 4.49 ± 0.25.

Turning to GRQERGLPPSMERGYPPPRDSYSS [RBMX], the protein stability index is, setting by setting: under setting [1], 4.77 ± 0.088; under setting [2], 4.71 ± 0.19.
